Test [1] addresses T1, human ASGPR (ASGPR-H1 and ASGPR-H2 subunits) (human, UniProt P07306 2-291; P07307 2-311).
T1 construct: Plasmids for H1 and H2 transfected in a ratio of 2:1 into HeLa cells; also called Asialoglycoprotein receptor
T1 sequence 1: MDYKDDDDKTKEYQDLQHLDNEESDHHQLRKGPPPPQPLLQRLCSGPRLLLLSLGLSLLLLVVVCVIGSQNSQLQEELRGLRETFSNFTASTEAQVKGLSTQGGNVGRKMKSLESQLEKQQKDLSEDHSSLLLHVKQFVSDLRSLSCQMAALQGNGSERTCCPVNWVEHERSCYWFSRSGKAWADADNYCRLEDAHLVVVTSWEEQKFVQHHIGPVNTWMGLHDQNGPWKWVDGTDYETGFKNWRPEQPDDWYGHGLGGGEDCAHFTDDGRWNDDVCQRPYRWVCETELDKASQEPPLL
T1 sequence 2: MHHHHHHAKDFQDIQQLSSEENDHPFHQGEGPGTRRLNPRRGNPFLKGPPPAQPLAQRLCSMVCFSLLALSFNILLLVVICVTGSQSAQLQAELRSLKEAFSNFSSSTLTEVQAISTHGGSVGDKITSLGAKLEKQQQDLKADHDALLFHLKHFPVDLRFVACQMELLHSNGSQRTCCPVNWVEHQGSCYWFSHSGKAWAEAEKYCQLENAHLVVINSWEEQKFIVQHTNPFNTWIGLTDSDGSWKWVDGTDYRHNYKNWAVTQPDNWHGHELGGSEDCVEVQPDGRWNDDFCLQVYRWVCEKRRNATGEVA
The experiment in a line: flow cytometry on HeLa/ASGPR/BirA cells.

In test [2] the target is T2, human IL6R (Accession no. NP_000556) (human, UniProt P08887 20-468).
T2 construct: whole, on cells; Expressed on Flp-In-CHO cells (IL6R+CHO)
T2 sequence (looked up): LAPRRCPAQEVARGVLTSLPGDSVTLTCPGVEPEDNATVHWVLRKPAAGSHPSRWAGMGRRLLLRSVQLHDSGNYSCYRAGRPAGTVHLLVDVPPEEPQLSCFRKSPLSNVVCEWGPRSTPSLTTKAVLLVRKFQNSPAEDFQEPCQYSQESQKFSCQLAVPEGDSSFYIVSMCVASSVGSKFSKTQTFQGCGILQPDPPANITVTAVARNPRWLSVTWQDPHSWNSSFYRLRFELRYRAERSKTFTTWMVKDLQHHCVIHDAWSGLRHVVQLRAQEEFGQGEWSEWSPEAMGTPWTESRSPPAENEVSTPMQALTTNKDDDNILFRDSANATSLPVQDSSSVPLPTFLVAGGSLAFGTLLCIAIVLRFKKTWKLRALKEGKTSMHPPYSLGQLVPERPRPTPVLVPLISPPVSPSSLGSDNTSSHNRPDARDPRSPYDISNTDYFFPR
The experiment in a line: flow cytometry on HeLa/BirA cells transfected with human IL6R; antibody at 1 micro M in the sorting step. Here is the method:
To select cells stably expressing IL6R, antibiotic resistant cells were incubated with 1 micro M of anti-IL6R antibody PF1H-G4T1K439E.Avi/PF1L-KT0 (heavy chain, PF1H-G4T1K439E.Avi (SEQ ID NO: 66); light chain, PF1L-KT0 (SEQ ID NO: 67) in MACS buffer (Auto MACS Rinsing Solution (Miltenyi Biotec, Cat #130-091-222) and MACS BSA Stock Solution (Miltenyi Biotec, Cat #1130-091-376)) for 30 min on ice. After wash in MACS buffer, cells were further incubated with R-phycoerythrin (PE) labelled anti-kappa antibody (Southern Biotech, Cat #2060-09) for 30 min on ice in MACS buffer. After wash in MACS buffer, cells expressing IL6R were sorted by FACSAria IIu sorter (Becton Dickinson). Selected clones were then expanded. Flow cytometry using anti-IL6R antibody PF1H-G4T1K439E.Avi/PF1L-KT0 and R-phycoerythrin (PE) labelled anti-kappa antibody (Southern Biotech, Cat #2060-09) with FACS Verse (Becton Dickinson) confirmed high expression of IL6R. BirA expression was also confirmed by capillary immunoassay using Simple Western Wes (Protein Simple).
On the technique in general: A flow cytometer gives signals particle by particle.

B1: anti-ASGPR antibody AGA0008Ha-G4T1K439E.Avi/AGA0008La-kOMC (antibody, human IgG4 S228P, kappa, V domains shown)
VH: QSVEESGGRLVTPGTPLTLTCTVSGFSLSSYAMGWVRQAPGKGLEYIGFINTGGSPYYASWAKGRFTISRTSTTVDLKMTSPTTEDTATYFCARDYDTSSGYYGYFNLWGPGTLVTVSS
VL: AQVLTQTPASVSAAVGGTVTIKCQASENIDSYLAWYQQKPGQPPKLLIYRASTLASGVPSRFKGSGSGTPFTLTISDLECADAATYYCQRYVSLNSGDAFGGGTKVEIKR
Take B1: in test [1], the binding result was “binds”.

B2: anti-IL6R antibody PF1H-G4T1K439E.Avi/PF1L-KT0 (antibody, human IgG4 S228P, kappa, V domains shown)
VH: QVQLQESGPGLVKPSETLSLTCAVSGYSISDDHAWSWVRQPPGEGLEWIGYISYSGITNYNPSLKGRVTISRDTSKNQFSLKLSSVTAADTAAYYCARVLARITAMDYWGEGTLVTVSS
VL: DIQMTQSPSSLSASVGDSVTITCQASQDISSYLNWYQQKPGKAPELLIYYGSELHSGVPSRFSGSGSGTDFTFTISSLEAEDAATYYCGQGNRLPYTFGQGTKVEIER
Regarding B2, the binding result in test [2] was “binds”.
